Biological target: wild-type human integrin α5β1 (octyl β-D-glucopyranoside preparation) (human), P08648
Test: competitive binding assay on α5β1-coated plates, isoDGR/STV-HRP probe

wild-type human integrin α5β1 (octyl β-D-glucopyranoside preparation) (human), P08648, sequence (P08648 42-1049, chain 1 of 2): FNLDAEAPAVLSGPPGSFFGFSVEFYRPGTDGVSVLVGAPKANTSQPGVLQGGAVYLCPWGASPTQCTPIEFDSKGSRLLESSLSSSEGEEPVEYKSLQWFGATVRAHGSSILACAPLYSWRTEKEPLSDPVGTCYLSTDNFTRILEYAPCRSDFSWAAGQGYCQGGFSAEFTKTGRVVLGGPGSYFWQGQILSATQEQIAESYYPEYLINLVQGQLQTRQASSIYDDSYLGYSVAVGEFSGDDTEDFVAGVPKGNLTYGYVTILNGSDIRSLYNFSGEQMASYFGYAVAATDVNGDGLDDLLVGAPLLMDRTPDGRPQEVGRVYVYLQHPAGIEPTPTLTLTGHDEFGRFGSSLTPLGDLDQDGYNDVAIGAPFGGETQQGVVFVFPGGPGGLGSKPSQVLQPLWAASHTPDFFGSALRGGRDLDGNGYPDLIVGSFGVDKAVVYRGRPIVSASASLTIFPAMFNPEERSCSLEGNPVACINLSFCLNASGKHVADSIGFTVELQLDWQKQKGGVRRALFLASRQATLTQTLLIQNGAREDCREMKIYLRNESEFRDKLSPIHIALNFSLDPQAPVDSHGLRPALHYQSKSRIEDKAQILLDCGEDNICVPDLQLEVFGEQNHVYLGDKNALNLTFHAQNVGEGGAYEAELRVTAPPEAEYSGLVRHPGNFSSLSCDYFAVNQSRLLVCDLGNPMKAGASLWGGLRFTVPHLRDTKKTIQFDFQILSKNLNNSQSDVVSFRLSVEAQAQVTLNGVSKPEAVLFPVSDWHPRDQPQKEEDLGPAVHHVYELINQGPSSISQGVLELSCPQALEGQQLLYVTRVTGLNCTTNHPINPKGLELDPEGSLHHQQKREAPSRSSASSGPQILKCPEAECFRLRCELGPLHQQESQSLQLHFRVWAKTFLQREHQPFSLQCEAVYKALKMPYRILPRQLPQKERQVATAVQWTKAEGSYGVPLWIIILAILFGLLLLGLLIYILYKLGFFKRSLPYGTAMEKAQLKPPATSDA
wild-type human integrin α5β1 (octyl β-D-glucopyranoside preparation) (human), P08648, sequence (P05556 21-798, chain 2 of 2, further chain): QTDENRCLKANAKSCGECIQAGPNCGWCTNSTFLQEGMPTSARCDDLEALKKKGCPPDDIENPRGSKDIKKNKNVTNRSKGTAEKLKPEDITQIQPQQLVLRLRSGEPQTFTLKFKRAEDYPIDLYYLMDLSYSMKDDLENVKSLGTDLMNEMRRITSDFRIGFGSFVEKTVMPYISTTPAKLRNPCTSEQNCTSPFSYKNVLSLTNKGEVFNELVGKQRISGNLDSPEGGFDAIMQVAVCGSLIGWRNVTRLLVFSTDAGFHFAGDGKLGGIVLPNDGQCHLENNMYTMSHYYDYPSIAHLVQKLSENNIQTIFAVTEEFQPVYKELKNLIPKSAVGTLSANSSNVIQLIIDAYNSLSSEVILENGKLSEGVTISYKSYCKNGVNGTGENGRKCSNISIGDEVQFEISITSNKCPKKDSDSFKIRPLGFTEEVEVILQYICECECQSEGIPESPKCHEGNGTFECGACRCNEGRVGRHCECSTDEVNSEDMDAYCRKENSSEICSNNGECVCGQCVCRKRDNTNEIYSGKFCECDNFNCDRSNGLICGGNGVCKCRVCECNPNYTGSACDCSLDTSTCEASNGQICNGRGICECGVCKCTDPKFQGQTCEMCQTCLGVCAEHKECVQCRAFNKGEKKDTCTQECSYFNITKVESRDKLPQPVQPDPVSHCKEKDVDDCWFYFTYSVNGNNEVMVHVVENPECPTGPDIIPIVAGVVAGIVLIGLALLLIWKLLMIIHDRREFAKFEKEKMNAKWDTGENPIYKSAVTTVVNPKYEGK

B1: foot and mouth disease virus-derived peptide A20FMDV2 (peptide)
peptide: NAVPNLRGDLQVLAQKVART
modifications: not checked
B1 was tested, and the Ki was 2.32 µM.

Reference: patent US20220402980A1, “CHROMOGRANIN A-DERIVED PEPTIDES AND USES THEREOF” (OSPEDALE SAN RAFFAELE S.R.L., priority 2019, published 2022)
